In paper PMC12212138, “Crystal structure and mutagenesis of a nucleic acid–binding BRCT domain in human PARP4”:

Columns and labels:
Assay in all cases: FP; 3 nM probe; FP: 50 mM Tris pH 7.5, 50 mM NaCl, 1 mM MgCl2, 0.05% NP40, 2 mM DTT, 5% glycerol, 25 ug/ml BSA, room temp 30 min; EMSA: 50 mM Tris pH 7.5, 50 mM NaCl, 4% Ficoll PM400, 0.05% NP40, 2 mM DTT, 0-18 uM protein, room temp 30 min, gel at 4 C
Details in all cases: protein: recombinant; tags: N-terminal His-SUMO removed by TEV; label: 5'-6-FAM; predicted intramolecular fold
[1] = target: T1, PARP4 BRCT WT (human, UniProt Q9UKK3 1-100)
T1 sequence: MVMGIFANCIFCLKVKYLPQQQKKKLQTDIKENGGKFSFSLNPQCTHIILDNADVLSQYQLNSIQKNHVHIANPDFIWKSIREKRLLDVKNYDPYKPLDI

[2] = target: T2, PARP4 BRCT K23/24Q (human, UniProt Q9UKK3 1-100, K23Q;K24Q)
T2 sequence: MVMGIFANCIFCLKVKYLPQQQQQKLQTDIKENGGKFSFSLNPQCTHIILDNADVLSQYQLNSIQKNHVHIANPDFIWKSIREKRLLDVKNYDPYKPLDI

[3] = target: T3, PARP4 BRCT F39Q (human, UniProt Q9UKK3 1-100, F39Q)
T3 sequence: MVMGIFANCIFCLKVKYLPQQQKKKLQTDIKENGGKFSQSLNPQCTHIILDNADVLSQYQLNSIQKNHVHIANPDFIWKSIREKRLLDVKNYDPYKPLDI

[4] = target: T4, PARP4 BRCT F39A (human, UniProt Q9UKK3 1-100, F39A)
T4 sequence: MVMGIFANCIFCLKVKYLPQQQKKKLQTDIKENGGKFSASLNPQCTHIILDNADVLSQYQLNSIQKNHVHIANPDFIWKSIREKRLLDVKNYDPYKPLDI

[5] = target: T5, PARP4 BRCT K31Q (human, UniProt Q9UKK3 1-100, K31Q)
T5 sequence: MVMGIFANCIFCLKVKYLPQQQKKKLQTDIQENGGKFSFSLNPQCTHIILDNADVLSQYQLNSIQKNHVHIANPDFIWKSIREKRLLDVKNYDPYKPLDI

[6] = target: T6, PARP4 BRCT-WGR-CAT K23/24Q (human, UniProt Q9UKK3 1-573, K23Q;K24Q)
T6 sequence: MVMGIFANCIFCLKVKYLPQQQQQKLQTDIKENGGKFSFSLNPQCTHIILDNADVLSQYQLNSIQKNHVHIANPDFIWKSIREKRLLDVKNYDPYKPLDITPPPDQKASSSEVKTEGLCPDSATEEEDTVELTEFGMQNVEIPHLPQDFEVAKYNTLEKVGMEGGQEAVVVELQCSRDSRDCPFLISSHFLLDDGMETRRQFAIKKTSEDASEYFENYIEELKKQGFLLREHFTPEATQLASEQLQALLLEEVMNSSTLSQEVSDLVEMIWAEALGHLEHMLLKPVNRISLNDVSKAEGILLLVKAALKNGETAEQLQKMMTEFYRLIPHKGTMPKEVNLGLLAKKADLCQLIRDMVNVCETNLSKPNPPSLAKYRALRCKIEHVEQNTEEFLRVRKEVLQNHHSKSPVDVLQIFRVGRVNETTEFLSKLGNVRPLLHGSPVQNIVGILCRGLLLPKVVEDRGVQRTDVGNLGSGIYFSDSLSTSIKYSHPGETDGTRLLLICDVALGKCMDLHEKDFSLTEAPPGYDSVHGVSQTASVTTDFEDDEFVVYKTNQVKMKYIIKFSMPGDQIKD

B1: vtRNA1-3 (structured_RNA)
RNA: GGCUGGCUUUAGCUCAGCGGUUACUUCGCGUGUCAUCAAACCACCUCUCUGGGUUGUUCGAGACCCGCGGGCGCUCUCCAGCCCUCUU
Kd [1]: 19 ± 4 µM | binding result [2]: no binding | Kd [3]: 35 ± 10 µM | Kd [4]: 33 ± 2 µM | Kd [5]: 61 ± 12 µM | Kd [6]: 71 ± 26 µM
